# Experimental data reported in the RNAGym collection of RNA variant scans (doi:10.7554/elife.80360).
# B1: CPEB3 Ribozyme (parent)
# chain: GGGGGCCACAGCAGAAGCGUUCACGUCGCGGCCCCUGUCAGAUUCUGGUGAAUCUGCGAAUUCUGCUGU
# Variants of: B1
# Experiment: self-cleavage, relative activity (ratio to wild type); higher = more cleavage; co-transcriptional
row,Variant,self-cleavage
1,G1C C6U,0.282
2,G1A U67C,0.121
3,G1C C7A,0.144
4,G1C C7G,0.128
5,G1C C29U,0.105
6,G1C C29G,0.106
7,G1C G19A,0.086
8,G1A G65U,0.106
9,G1A G65C,0.0479
10,G1A G65A,0.0429
11,G1C C9G,0.203
12,G1C C9U,0.246
13,G1C G25A,0.0736
14,G1C G25U,0.0853
15,G1C G25C,0.103
16,G1A G5C,0.0678
17,G1A G5U,0.0571
18,G1A G5A,0.15
19,G1C A16U,0.159
20,G1C A16G,0.254
21,G1C U26C,0.162
22,G1C U26G,0.152
23,G1U,0.11
24,G1C,0.219

row,Variant,self-cleavage
1,G1A,0.104
2,G1C C24A,0.0947
3,G1A G58C,0.126
4,G1A G58A,0.0724
5,G1C U38G,0.112
6,G1C U38C,0.231
7,G1A A16G,0.0235
8,G1A C34U,0.0949
9,G1A C34A,0.111
10,G1A C34G,0.0238
11,G1A C22U,0.0977
12,G1A C54G,0.0801
13,G1A C54A,0.0906
14,G1C C12U,0.252
15,G1C C12A,0.164
16,G1C C12G,0.238
17,G1A U55C,0.0976
18,G1A U55A,0.059
19,G1U A10U,0.127
20,G1C U64C,0.179
21,G1C U64A,0.236
22,G1A C24G,0.163
23,G1A C24A,0.0536
24,G1A C24U,0.0626

row,Variant,self-cleavage
1,G1U C12G,0.106
2,G1U C12U,0.124
3,G1A G4C,0.0471
4,G1A G4A,0.28
5,G1A C6A,0.0849
6,G1A C6G,0.0647
7,G1A C6U,0.105
8,G1C G3A,0.174
9,G1C G3U,0.0766
10,G1U C45G,0.134
11,G1U C45U,0.152
12,G1A C39U,0.0531
13,G1C G41C,0.23
14,G1C G41A,0.19
15,G1U A59C,0.0892
16,G1U A59U,0.114
17,G1U A59G,0.148
18,G1A G68A,0.136
19,G1A G68U,0.159
20,G1A G68C,0.222
21,G1C G17C,0.0857
22,G1C G17U,0.155
23,G1C G17A,0.124
24,G1A G17A,0.0759

row,Variant,self-cleavage
1,G1A G17U,0.047
2,G1C U55A,0.189
3,G1C U55C,0.167
4,G1A U49A,0.075
5,G1A U49G,0.13
6,G1C C54G,0.321
7,G1C G28U,0.0985
8,G1C G28C,0.12
9,G1U A8C,0.0263
10,G1U A8U,0.0804
11,G1C G50U,0.169
12,G1U C35U,0.113
13,G1U C35A,0.0801
14,G1C C57A,0.116
15,G1C C57G,0.104
16,G1A U26A,0.077
17,G1A U26G,0.0674
18,G1A U26C,0.138
19,G1C G68U,0.297
20,G1C G68A,0.304
21,G1C G68C,0.219
22,G1A A23U,0.184
23,G1A G25C,0.0807
24,G1U C29G,0.0597

row,Variant,self-cleavage
1,G1U C29A,0.111
2,G1U C29U,0.0573
3,G1A A42G,0.0249
4,G1A U62A,0.0846
5,G1C C33A,0.197
6,G1C C33G,0.118
7,G1C C33U,0.282
8,G1U A23U,0.108
9,G1A C63A,0.1
10,G1A C63G,0.0342
11,G1A C63U,0.0639
12,G1C G58C,0.267
13,G1C G58U,0.248
14,G1C G58A,0.172
15,G1C C34U,0.236
16,G1C C34A,0.152
17,G1C C34G,0.159
18,G1C G4A,0.225
19,G1C G4C,0.216
20,G1A A60C,0.0326
21,G1C G65U,0.212
22,G1C G56A,0.223
23,G1C G56C,0.186
24,G1A U69G,0.23

row,Variant,self-cleavage
1,G1A U69A,0.0727
2,G1A U69C,0.187
3,G1A G41U,0.0947
4,G1A G41C,0.0331
5,G1A C9G,0.0894
6,G1A C9U,0.19
7,G1A C9A,0.145
8,G1C G47A,0.242
9,G1C G47U,0.268
10,G1C G47C,0.213
11,G1C A52G,0.24
12,G1C A52C,0.2
13,G1C A52U,0.201
14,G1C U44G,0.151
15,G1C U44A,0.231
16,G1C C32U,0.327
17,G1C C32A,0.279
18,G1C A42G,0.152
19,G1C A42C,0.274
20,G1A G48A,0.0895
21,G1A G48U,0.045
22,G1A C7G,0.0966
23,G1C U20G,0.131
24,G1C U20C,0.098

row,Variant,self-cleavage
1,G1A C45U,0.0709
2,G1A C45G,0.0789
3,G1A C35A,0.0188
4,G1A C35U,0.0752
5,G1A U46C,0.0905
6,G1A U46G,0.0453
7,G1A U46A,0.134
8,G1C U61C,0.141
9,G1C U61G,0.271
10,G1A U44A,0.0757
11,G1A U44C,0.135
12,G1A C57U,0.0557
13,G1A C57G,0.0693
14,G1A C57A,0.0488
15,G1A C27A,0.0748
16,G1A C27U,0.0438
17,G1A G47A,0.104
18,G1A G47C,0.0423
19,G1A G47U,0.104
20,G1A A13U,0.0681
21,G1A A13C,0.0638
22,G1A A13G,0.0336
23,G1A A51U,0.136
